Data: publication PMC10883291

B1: BMS-986351 (antibody, V domains shown)
VH: QVQLVQSGAEVKKPGASVKVSCKASGYTFRGYGISWVRQAPGQGLEWMGWISAYGGETNYAQKLQGRVTMTTDTSTSTAYMELRSLRSDDTAVYYCAREAGSSWYDFDLWGRGTLVTVSS
VL: DIQMTQSPSSVSASVGDRVTITCRASQGISSWLAWYQQKPGKAPKLLIYAASNLQSGVPSRFSGSGSGTDFTLTISSLQPEDFATYYCQQGASFPITFGGGTKVEIK
B2: BMS-986351-Fab (Fab, V domains shown)
VH: B1 VH
VL: B1 VL

Assays:
[1] = molecular target: FcγR3A (CD16aV158) (human); experiment: FRET or BRET; time-resolved FRET (Cisbio); FcγRs expressed on HEK293 cells (Tb donor cells); IgG-d2 acceptor conjugate displaced by the test antibodies; EC50 by the manufacturer's protocol
Chain of FcγR3A (CD16aV158) (human) (P08637 17-254 F176V): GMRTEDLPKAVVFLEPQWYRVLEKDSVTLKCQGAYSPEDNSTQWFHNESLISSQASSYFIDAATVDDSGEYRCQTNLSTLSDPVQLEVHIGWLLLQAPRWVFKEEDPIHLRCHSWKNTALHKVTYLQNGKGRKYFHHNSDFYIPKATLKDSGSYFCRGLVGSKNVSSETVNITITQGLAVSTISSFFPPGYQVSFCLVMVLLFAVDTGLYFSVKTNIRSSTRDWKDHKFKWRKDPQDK

[2] = molecular target: FcγR2A (CD32aR131) (human); experiment: as above
Chain of FcγR2A (CD32aR131) (human) (P12318 34-317 H167R): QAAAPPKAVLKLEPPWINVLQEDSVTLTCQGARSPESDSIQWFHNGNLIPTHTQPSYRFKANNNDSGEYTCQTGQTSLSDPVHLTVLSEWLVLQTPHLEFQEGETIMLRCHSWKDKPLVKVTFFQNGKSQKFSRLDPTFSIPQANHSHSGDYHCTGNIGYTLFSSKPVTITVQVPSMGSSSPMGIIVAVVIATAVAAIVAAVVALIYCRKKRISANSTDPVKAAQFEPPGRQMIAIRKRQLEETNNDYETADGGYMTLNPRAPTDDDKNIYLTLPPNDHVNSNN

[3] = molecular target: SIRPα variant 4 Fc (haplotype v4 ESK) (human) (UniProt P78324); experiment: BLI; Octet, under affinity conditions; SIRPα variants 1-6 Fc captured on anti-human capture tips, dipped into 50 nmol/L BMS-986351-Fab; association 180 s, dissociation 180 s; 2 x 10^-4 is the limit of koff that can be confidently assigned
Chain of SIRPα variant 4 Fc (haplotype v4 ESK) (human) (P78324 other isoform, or with tags, fused parts or gaps, change not shown): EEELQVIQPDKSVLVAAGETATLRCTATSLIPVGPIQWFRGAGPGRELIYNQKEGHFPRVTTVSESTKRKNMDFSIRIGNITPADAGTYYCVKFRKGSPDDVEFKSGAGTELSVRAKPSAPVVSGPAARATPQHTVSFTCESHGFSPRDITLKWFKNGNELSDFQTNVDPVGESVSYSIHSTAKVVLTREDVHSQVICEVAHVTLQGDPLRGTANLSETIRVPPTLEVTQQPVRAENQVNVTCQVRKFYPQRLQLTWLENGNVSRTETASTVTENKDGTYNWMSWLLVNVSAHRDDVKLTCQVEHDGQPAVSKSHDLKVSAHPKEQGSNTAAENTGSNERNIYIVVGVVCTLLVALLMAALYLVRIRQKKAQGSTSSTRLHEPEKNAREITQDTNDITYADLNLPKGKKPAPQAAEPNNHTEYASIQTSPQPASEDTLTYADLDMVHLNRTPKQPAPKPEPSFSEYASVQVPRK

[4] = molecular target: SIRPα variant 3 Fc (haplotype v3 DLE) (human) (UniProt P78324); experiment: as above
Chain of SIRPα variant 3 Fc (haplotype v3 DLE) (human) (P78324 other isoform, or with tags, fused parts or gaps, change not shown): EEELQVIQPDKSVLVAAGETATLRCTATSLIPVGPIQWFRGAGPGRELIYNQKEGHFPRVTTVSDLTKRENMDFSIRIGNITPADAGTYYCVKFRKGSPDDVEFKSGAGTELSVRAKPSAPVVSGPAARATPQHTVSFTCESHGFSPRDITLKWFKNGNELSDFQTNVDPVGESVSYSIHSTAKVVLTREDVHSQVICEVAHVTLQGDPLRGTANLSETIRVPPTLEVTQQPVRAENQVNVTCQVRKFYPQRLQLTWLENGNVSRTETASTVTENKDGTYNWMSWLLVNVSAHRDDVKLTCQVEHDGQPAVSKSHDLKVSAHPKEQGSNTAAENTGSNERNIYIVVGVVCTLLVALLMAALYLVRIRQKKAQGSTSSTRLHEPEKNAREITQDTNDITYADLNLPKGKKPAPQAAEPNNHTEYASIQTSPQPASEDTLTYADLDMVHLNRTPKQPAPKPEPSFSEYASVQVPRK

[5] = molecular target: SIRPα variant 6 Fc (haplotype v6 ELE) (human) (UniProt P78324); experiment: as above
Chain of SIRPα variant 6 Fc (haplotype v6 ELE) (human) (P78324 other isoform, or with tags, fused parts or gaps, change not shown): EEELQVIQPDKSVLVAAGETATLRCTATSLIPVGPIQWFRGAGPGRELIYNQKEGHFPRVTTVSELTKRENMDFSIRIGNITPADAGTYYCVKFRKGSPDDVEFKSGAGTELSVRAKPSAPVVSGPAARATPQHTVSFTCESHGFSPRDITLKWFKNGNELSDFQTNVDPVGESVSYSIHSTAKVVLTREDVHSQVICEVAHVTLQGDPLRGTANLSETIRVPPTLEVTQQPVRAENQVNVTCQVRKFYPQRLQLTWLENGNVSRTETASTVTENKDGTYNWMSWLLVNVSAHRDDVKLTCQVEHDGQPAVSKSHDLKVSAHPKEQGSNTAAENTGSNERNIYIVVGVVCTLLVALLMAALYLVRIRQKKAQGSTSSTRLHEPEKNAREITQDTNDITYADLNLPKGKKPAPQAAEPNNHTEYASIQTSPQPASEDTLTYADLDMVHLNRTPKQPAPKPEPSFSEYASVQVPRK

[6] = molecular target: SIRPα variant 5 Fc (haplotype v5 EPN) (human) (UniProt P78324); experiment: as above
Chain of SIRPα variant 5 Fc (haplotype v5 EPN) (human) (P78324 other isoform, or with tags, fused parts or gaps, change not shown): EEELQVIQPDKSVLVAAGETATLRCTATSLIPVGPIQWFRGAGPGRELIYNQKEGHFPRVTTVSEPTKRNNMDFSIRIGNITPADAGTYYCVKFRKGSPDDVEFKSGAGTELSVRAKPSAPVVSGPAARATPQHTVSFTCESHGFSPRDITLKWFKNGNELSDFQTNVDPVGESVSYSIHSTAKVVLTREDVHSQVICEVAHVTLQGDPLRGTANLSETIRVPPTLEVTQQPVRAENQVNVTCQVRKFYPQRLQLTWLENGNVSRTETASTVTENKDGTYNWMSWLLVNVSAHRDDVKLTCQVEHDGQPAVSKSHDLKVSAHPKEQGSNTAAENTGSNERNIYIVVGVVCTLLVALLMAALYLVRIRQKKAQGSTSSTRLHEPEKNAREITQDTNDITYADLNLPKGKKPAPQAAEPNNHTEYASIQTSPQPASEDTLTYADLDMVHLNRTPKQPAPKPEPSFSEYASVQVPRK

Row | Binder | EC50 [1] [nM] | EC50 [2] [nM] | Kd [3] [nM] | koff [3] [s⁻¹] | kon [3] [M⁻¹ s⁻¹] | Kd [4] [nM] | koff [4] [s⁻¹] | kon [4] [M⁻¹ s⁻¹] | Kd [5] [nM] | koff [5] [s⁻¹] | kon [5] [M⁻¹ s⁻¹] | Kd [6] [nM] | koff [6] [s⁻¹] | kon [6] [M⁻¹ s⁻¹]
1 | B1 | 795 | 188 |  |  |  |  |  |  |  |  |  |  |  | 
2 | B2 |  |  | 1.52 | 0.00228 | 1.5e+06 | < 0.145 | < 0.0002 | 1.38e+06 | 0.183 | 0.000356 | 1.94e+06 | 0.611 | 0.00106 | 1.73e+06
